The assay has as its target MBP-TSR4+5, recombinant thrombospondin repeats 4 and 5 of human properdin expressed in tandem, fused to maltose-binding protein (human). Kind of assay: SEC. For orientation: Size exclusion chromatography separates by hydrodynamic size, large species first.

A word on the stoichiometry N: it is the number of molecules, sites or subunits per partner or assembly. As to “MBP-TSR4+5, recombinant thrombospondin repeats 4 and 5 of human properdin expressed in tandem, fused to maltose-binding protein (domain or fragment)”, the percent migrating as dimer stood at 40% and the stoichiometry N came to 2.

These data come from article PMC5951972.
